The values below come from article PMC4747346, “Interaction of RECQ4 and MCM10 is important for efficient DNA replication origin firing in human cells” (Oncotarget, 2015).

In the experiment the target is T1, HIS-RECQ4 (full length, recombinant) (human, UniProt O94761 1-1208).
T1 construct: RECQ4; full length construct, a gift from Dr Yilun Liu; the construct itself is not described; also called H-R4; source: E. coli Rosetta pLysS, purified (HQ sepharose flow-through, PEI, HiTrap HP with imidazole, FLAG M2 beads)
T1 sequence (looked up): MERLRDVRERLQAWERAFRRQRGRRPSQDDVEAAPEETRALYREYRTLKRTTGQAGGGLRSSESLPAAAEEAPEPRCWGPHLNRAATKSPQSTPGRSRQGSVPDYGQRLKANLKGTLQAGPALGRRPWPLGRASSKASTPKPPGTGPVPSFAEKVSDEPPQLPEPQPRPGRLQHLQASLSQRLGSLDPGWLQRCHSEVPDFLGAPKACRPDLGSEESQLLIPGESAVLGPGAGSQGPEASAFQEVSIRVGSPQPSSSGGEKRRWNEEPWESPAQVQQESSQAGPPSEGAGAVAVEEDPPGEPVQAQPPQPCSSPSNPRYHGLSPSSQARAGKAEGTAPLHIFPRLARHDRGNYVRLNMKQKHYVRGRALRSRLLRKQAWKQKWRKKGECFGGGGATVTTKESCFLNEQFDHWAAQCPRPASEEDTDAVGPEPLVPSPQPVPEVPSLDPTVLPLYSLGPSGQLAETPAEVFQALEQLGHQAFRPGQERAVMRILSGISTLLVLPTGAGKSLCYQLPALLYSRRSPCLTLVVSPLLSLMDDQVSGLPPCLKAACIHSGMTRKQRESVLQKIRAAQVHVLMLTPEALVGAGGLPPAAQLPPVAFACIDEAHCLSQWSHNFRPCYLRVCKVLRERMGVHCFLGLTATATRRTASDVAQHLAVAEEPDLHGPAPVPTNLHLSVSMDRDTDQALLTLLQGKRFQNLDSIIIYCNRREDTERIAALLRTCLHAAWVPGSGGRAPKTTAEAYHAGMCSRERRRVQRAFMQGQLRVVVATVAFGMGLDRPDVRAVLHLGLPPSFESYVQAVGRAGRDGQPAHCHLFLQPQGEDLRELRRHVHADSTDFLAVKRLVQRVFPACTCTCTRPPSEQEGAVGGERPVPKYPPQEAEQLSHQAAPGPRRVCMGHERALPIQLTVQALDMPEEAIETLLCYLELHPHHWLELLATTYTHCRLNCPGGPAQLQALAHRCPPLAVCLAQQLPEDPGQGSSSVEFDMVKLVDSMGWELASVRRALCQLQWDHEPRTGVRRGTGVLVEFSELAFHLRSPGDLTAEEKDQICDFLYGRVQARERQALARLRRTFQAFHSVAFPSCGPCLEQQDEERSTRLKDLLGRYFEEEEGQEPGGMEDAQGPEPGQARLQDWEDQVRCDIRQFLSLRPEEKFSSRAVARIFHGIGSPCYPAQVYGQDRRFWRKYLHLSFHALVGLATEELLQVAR
In words: SPR; BIAcore T100, 25°C; GST-MCM10 amine-coupled to a CM3 chip (500 response units); RECQ4 as analyte at 1, 0.5, 0.25, 0.125, 0.06 and 0.03 μM; flow 30 and 60 μl/min; HBS buffer (10 mM HEPES pH 7.4, 150 mM NaCl, 0.5 mM TCEP, 0.05% Tween20); global fit to a two state model. As to conditions: both partners purified. For orientation: In SPR one partner is held on a chip, and binding of the other changes the refractive index at the surface.

B1: GST-MCM10 (natural protein, human, UniProt Q7L590 1-875, looked up)
chain: MDEEEDNLSLLTALLEENESALDCNSEENNFLTRENGEPDAFDELFDADGDGESYTEEADDGETGETRDEKENLATLFGDMEDLTDEEEVPASQSTENRVLPAPAPRREKTNEELQEELRNLQEQMKALQEQLKVTTIKQTASPARLQKSPVEKSPRPPLKERRVQRIQESTCFSAELDVPALPRTKRVARTPKASPPDPKSSSSRMTSAPSQPLQTISRNKPSGITRGQIVGTPGSSGETTQPICVEAFSGLRLRRPRVSSTEMNKKMTGRKLIRLSQIKEKMAREKLEEIDWVTFGVILKKVTPQSVNSGKTFSIWKLNDLRDLTQCVSLFLFGEVHKALWKTEQGTVVGILNANPMKPKDGSEEVCLSIDHPQKVLIMGEALDLGTCKAKKKNGEPCTQTVNLRDCEYCQYHVQAQYKKLSAKRADLQSTFSGGRIPKKFARRGTSLKERLCQDGFYYGGVSSASYAASIAAAVAPKKKIQTTLSNLVVKGTNLIIQETRQKLGIPQKSLSCSEEFKELMDLPTCGARNLKQHLAKATASGIMGSPKPAIKSISASALLKQQKQRMLEMRRRKSEEIQKRFLQSSSEVESPAVPSSSRQPPAQPPRTGSEFPRLEGAPATMTPKLGRGVLEGDDVLFYDESPPPRPKLSALAEAKKLAAITKLRAKGQVLTKTNPNSIKKKQKDPQDILEVKERVEKNTMFSSQAEDELEPARKKRREQLAYLESEEFQKILKAKSKHTGILKEAEAEMQERYFEPLVKKEQMEEKMRNIREVKCRVVTCKTCAYTHFKLLETCVSEQHEYHWHDGVKRFFKCPCGNRSISLDRLPNKHCSNCGLYKWERDGMLKEKTGPKIGGETLLPRGEEHAKFLNSLK
notes: MCM10, human; construct pGEX-4T-1-MCM10, a gift from Dr. Yilun Liu; also called G-M10; pGEX-4T-1-MCM10; source: E. coli, purified on GSH beads (kept on the beads for pull-downs; eluted with reduced glutathione for the peptide array)
For orientation: Kd means the equilibrium constant for the complex coming apart. Take B1: the Kd was determined as 170 ± 200 nM.
